The results in this text go back to the RNAGym collection of RNA variant scans (doi:10.7554/elife.80360).

First the molecules themselves.
B1: Hammerhead Ribozyme (parent)
chain: ACCGGAUGUGCUUUCCGGUCUGAUGAGUCCGUGAGGACGAAACAG

In the data set the parent is B1. Briefly: self-cleavage, relative activity (ratio to wild type); higher = more cleavage; co-transcriptional.
For the variant G18A G45U, the self-cleavage came to 0.469.
For G18A G45C, the self-cleavage worked out at 0.446.
With G18C A37U, the self-cleavage was 0.483.
For the variant G18C A37C, the self-cleavage was 0.373.
In the case of G18C A37G it was 0.398; in that of G18A G33A, 0.873.
Take G18A G33C: the self-cleavage is 0.635.
With G18A G33U, the self-cleavage is 0.726.
In the case of G18A G39C it was 0.326; in that of G18A G39A, 0.339; in that of G18A G39U, 0.303.
In the case of G18A A23U it was 0.345.
For the variant G18A A23G, the self-cleavage was 0.361.
As to G18A A23C, the self-cleavage was 0.355.
In the case of G17C U21C, the self-cleavage came to 0.275.
Take G17C U21G: the self-cleavage amounted to 0.352.
Consider G17C U21A, for which the self-cleavage was 0.306.
In the case of G18A G35A it was 0.536; in that of G18A G35U, 0.594; in that of G18A G35C, 0.479.
G18U A23G: the self-cleavage worked out at 0.288.
In the case of G18U A23C it was 0.367; in that of G18U A23U, 0.342; in that of G17U G22A, 0.368.
Turning to G17U G22U, the self-cleavage came out at 0.359.
In the case of G17U G22C it was 0.314; in that of G18U A44U, 0.368.
In the case of G18U A44G it was 0.942; in that of G18U A44C, 0.431.
Regarding G17U C29A, the self-cleavage is 0.523.
On to G17U C29G, for which the self-cleavage is 0.591.
As for G17U C29U, the self-cleavage was 0.748.
Turning to G17U U19C, the self-cleavage turned out to be 0.397.
As for G17U U19G, the self-cleavage stood at 0.257.
In the case of G17U U19A it was 0.361; in that of G18U C43G, 0.373; in that of G18U C43U, 0.402.
In the case of G18U C43A it was 0.286; in that of G18A U19A, 0.367; in that of G18A U19G, 0.359.
In the case of G18A U19C it was 0.402.
Take G17C G39A: the self-cleavage was determined as 0.342.
Consider G17C G39U, for which the self-cleavage was determined as 0.33.
G17C G39C: the self-cleavage stood at 0.291.
For the variant G17U G35A, the self-cleavage stood at 0.642.
In the case of G17U G35U, the self-cleavage worked out at 0.454.
In the case of G17U G35C it was 0.405.
In the case of G17U A34C it was 0.46; in that of G17U A34G, 0.604; in that of G17U A34U, 0.531.
In the case of G18C U24C it was 0.477; in that of G18C U24G, 0.365.
G18C U24A: the self-cleavage is 0.617.
For the variant G18A G36A, the self-cleavage stood at 0.544.
In the case of G18A G36U, the self-cleavage is 0.496.
Regarding G18A G36C, the self-cleavage was found to be 0.299.
In the case of G17U U24C it was 0.697; in that of G17U U24G, 0.704.
With G17U U24A, the self-cleavage was 0.781.
In the case of G18U C29A it was 0.538; in that of G18U C29U, 0.547.
In the case of G18U C29G it was 0.575; in that of G18U A37G, 0.629; in that of G18U A37U, 0.494.
In the case of G18U A37C it was 0.567; in that of G18C A42C, 0.328; in that of G18C A42U, 0.325.
With G18C A42G, the self-cleavage is 0.372.
Turning to G18C U21G, the self-cleavage was determined as 0.285.
In the case of G18C U21C it was 0.284.
In the case of G18C U21A it was 0.333; in that of G18C G33C, 0.616.
G18C G33U: the self-cleavage came to 0.708.
In the case of G18C G33A it was 0.765.
Take G18C U19C: the self-cleavage amounted to 0.375.
For the variant G18C U19A, the self-cleavage is 0.349.
In the case of G18C U19G it was 0.224; in that of G18A C29G, 0.537; in that of G18A C29U, 0.574.
As to G18A C29A, the self-cleavage worked out at 0.44.
In the case of G18C G36C it was 0.352.
In the case of G18C G36A it was 0.347; in that of G18C G36U, 0.337.
G18A C30U: the self-cleavage is 0.783.
For G18A C30G, the self-cleavage is 0.381.
In the case of G18A C30A it was 0.607; in that of G18C G39A, 0.289.
Regarding G18C G39U, the self-cleavage was 0.372.
In the case of G18C G39C it was 0.289.
In the case of G17C G31U it was 0.713; in that of G17C G31C, 0.563; in that of G17C G31A, 0.699.
G18U A34U: the self-cleavage came to 0.51.
In the case of G18U A34C it was 0.407; in that of G18U A34G, 0.493.
In the case of G17C U28G it was 0.395; in that of G17C U28C, 0.276; in that of G17C U28A, 0.391.
In the case of G18A G22A it was 0.276; in that of G18A G22C, 0.417.
As for G18A G22U, the self-cleavage was determined as 0.373.
In the case of G18C G31A it was 0.649.
In the case of G18C G31C it was 0.548; in that of G18C G31U, 0.673.
Regarding G17U G45C, the self-cleavage came out at 0.513.
Take G17U G45A: the self-cleavage stood at 0.436.
In the case of G17U G45U it was 0.589.
In the case of G17C G27U it was 0.349; in that of G17C G27C, 0.354.
For G17C G27A, the self-cleavage is 0.446.
For G18C G22C, the self-cleavage is 0.333.
In the case of G18C G22U it was 0.29; in that of G18C G22A, 0.342; in that of G17U A26U, 0.527.
Turning to G17U A26G, the self-cleavage stood at 0.33.
In the case of G17U A26C it was 0.448; in that of G17U A42C, 0.394; in that of G17U A42G, 0.333.
On to G17U A42U, for which the self-cleavage worked out at 0.369.
On to G18A A40C, for which the self-cleavage was 0.308.
In the case of G18A A40G it was 0.351.
In the case of G18A A40U it was 0.288.
With G18A C38U, the self-cleavage is 0.531.
In the case of G18A C38A it was 0.596; in that of G18A C38G, 0.453; in that of G17U U21C, 0.306.
In the case of G17U U21G it was 0.387; in that of G17U U21A, 0.591.
As to G17U A40C, the self-cleavage amounted to 0.449.
In the case of G17U A40U it was 0.376; in that of G17U A40G, 0.388.
Consider G18C C29A, for which the self-cleavage was found to be 0.374.
In the case of G18C C29G it was 0.302; in that of G18C C29U, 0.506; in that of G17U C43A, 0.356.
In the case of G17U C43G it was 0.291; in that of G17U C43U, 0.379.
In the case of G17U A41C it was 0.365; in that of G17U A41G, 0.375; in that of G17U A41U, 0.327.
For the variant G17U G39A, the self-cleavage was 0.328.
In the case of G17U G39U it was 0.357; in that of G17U G39C, 0.348; in that of G18U A41G, 0.375.
Take G18U A41U: the self-cleavage stood at 0.385.
As for G18U A41C, the self-cleavage is 0.427.
For the variant G18U G22A, the self-cleavage was found to be 0.344.
In the case of G18U G22U it was 0.378.
In the case of G18U G22C it was 0.372.
In the case of G18A G25U it was 0.348.
Regarding G18A G25A, the self-cleavage came out at 0.281.
In the case of G18A G25C it was 0.332; in that of G17U U32A, 0.764.
In the case of G17U U32G it was 0.73; in that of G17U U32C, 0.633.
In the case of G18C C38U it was 0.453.
On to G18C C38G, for which the self-cleavage was 0.387.
In the case of G18C C38A it was 0.327; in that of G18A U32A, 0.778.
For G18A U32G, the self-cleavage amounted to 0.744.
In the case of G18A U32C it was 0.731; in that of G17U A44C, 0.495; in that of G17U A44U, 0.469.
As to G17U A44G, the self-cleavage is 0.877.
In the case of G18C G25U it was 0.284; in that of G18C G25A, 0.328; in that of G18C G25C, 0.347.
